# Values quoted from earlier work, collected in publication PMC6684861 (Traffic (Copenhagen, Denmark), 2018).
# B1: DNA polymerase λ (protein, UniProt Q9UGP5 1-575, looked up)
# DNA polymerase lambda: MDPRGILKAFPKRQKIHADASSKVLAKIPRREEGEEAEEWLSSLRAHVVRTGIGRARAELFEKQIVQHGGQLCPAQGPGVTHIVVDEGMDYERALRLLRLPQLPPGAQLVKSAWLSLCLQERRLVDVAGFSIFIPSRYLDHPQPSKAEQDASIPPGTHEALLQTALSPPPPPTRPVSPPQKAKEAPNTQAQPISDDEASDGEETQVSAADLEALISGHYPTSLEGDCEPSPAPAVLDKWVCAQPSSQKATNHNLHITEKLEVLAKAYSVQGDKWRALGYAKAINALKSFHKPVTSYQEACSIPGIGKRMAEKIIEILESGHLRKLDHISESVPVLELFSNIWGAGTKTAQMWYQQGFRSLEDIRSQASLTTQQAIGLKHYSDFLERMPREEATEIEQTVQKAAQAFNSGLLCVACGSYRRGKATCGDVDVLITHPDGRSHRGIFSRLLDSLRQEGFLTDDLVSQEENGQQQKYLGVCRLPGPGRRHRRLDIIVVPYSEFACALLYFTGSAHFNRSMRALAKTKGMSLSEHALSTAVVRNTHGCKVGPGRVLPTPTEKDVFRLLGLPYREPAERDW
# Tested on: mouse embryonic fibroblasts
# Details: ref unpublished observations
molecule,measurement,value
B1,nuclear/cytosolic ratio in mouse embryonic fibroblasts,8
